Kd, koff and kon data for 1 molecule are collected here from US20100273979A1.

Assay [1] concerns the target human serum albumin (human), P02768. The experiment in a line: SPR (Biacore2000), HSA immobilised (450 RU), analyte 4-400 nM.
Assay [2] has the same target. As to the kind of experiment: SPR (Biacore2000), HSA immobilised on CM-5, analyte injected at 25 nM; qualitative.
The target of assay [3] is mouse serum albumin (mouse), P07724. As to the kind of experiment: SPR (Biacore2000), MSA immobilised on CM-5, analyte injected at 25 nM; qualitative.
mouse serum albumin (mouse), P07724, sequence (P07724 25-608 limits assumed): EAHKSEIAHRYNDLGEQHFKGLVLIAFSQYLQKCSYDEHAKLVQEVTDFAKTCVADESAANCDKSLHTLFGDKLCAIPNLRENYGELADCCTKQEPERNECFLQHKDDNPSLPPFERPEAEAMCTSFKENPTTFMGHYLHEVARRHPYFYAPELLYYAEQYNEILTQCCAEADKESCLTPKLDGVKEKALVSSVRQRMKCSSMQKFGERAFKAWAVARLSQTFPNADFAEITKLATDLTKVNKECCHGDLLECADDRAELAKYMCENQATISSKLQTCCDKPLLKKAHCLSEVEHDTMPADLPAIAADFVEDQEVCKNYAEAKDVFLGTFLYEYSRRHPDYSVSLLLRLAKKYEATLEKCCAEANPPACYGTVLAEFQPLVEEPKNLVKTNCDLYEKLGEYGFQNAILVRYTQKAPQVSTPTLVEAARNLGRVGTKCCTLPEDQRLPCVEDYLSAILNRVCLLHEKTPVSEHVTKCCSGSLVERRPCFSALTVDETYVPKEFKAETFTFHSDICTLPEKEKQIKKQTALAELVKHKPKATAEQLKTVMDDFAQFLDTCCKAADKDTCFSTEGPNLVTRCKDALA

As to LAEAKVLANRELDKYGVSDYYKNLINNAKTVEGVKALIDEILAALP (modifications not checked), the Kd turned out to be 1.2 nM in assay [1], 1.5 nM in assay [2] and 4.9 nM in assay [3]. This molecule also came in with a koff in assay [1] of 0.00065 s⁻¹. The molecule further registered a kon in assay [1] of 550000 M⁻¹ s⁻¹.
